Residue numbers refer to the chain shown, from its start. Numbers in names are those of the source.
B1: PSMB1068 (bispecific antibody, human IgG1, kappa, L234A L235A)
heavy: not shown
light: not shown
chain: QVQLQESGGDVVQPGRSLRLSCAASGFSFSGYGLHWVRQAPGRGLEWVTLISYDGSNKYYADSVKGRFTISRDNSKNTLYLQMNSLRAEDTAVYYCAKTTVSDPYYYGMDVWGQGTTVTVSSGGSEGKSSGSGSESKSTGGSSYELTQPPSVSVAPGQTARITCGGNNIGSKSVHWYQQKPGQAPVLVVYDDSDRPSGIPERFSGTNSGNTATLTISRAEAGDEADYYCQVWDSSSDHVVFGGGTKLTVLEPKSSDKTHTCPPCPAPEAAGGPSVFLFPPKPKDTLMISRTPEVTCVVVSVSHEDPEVKFNWYVDGVEVHNAKTKPREEQYNSTYRVVSVLTVLHQDWLNGKEYKCKVSNKALPAPIEKTISKAKGQPREPQVYVLPPSREEMTKNQVSLLCLVKGFYPSDIAVEWESNGQPENNYLTWPPVLDSDGSFFLYSKLTVDKSRWQQGNVFSCSVMHEALHNHYTQKSLSLSPG
notes: HC1 (ZWA): B23B62-Fab; LC2 is NA
B2: PSMB1049 (bispecific antibody, human IgG1, kappa, L234A L235A)
heavy: not shown
light: not shown
chain: QSVLTQPASVSGSPGQSITISCTGTSSDVGGYNYVSWYQQHPGKAPKLMIYEVSNRPSGVSNRFSGSKSGNTASLTISGLQAEDEADYYCSSYTSSYTYVFGTGTKLTVLGGSEGKSSGSGSESKSTGGSEVQLVESGGDLVQPGGSLRLSCAASGFTFNNYNMNWVRQAPGKGLEWVSHISTSSSNKYYADSVKGRFSISRDIAKNSMYLQMNSLRDEDTAVYYCARDGVGADYGDYYYYGMDVWGQGTTVTVSSEPKSSDKTHTCPPCPAPEAAGGPSVFLFPPKPKDTLMISRTPEVTCVVVSVSHEDPEVKFNWYVDGVEVHNAKTKPREEQYNSTYRVVSVLTVLHQDWLNGKEYKCKVSNKALPAPIEKTISKAKGQPREPQVYVLPPSREEMTKNQVSLLCLVKGFYPSDIAVEWESNGQPENNYLTWPPVLDSDGSFFLYSKLTVDKSRWQQGNVFSCSVMHEALHNHYTQKSLSLSPG
notes: as for B1
B3: PSMB1045 (bispecific antibody, human IgG1, kappa, L234A L235A)
heavy: not shown
light: not shown
chain: SYELMQPPSVSVSPGQTARITCSGDALPKQYAYWYQQKPGQAPVLVIYKDSERPSGIPVRFSGSSSGTTVTLTITGVQAEDEADYYCQSADSSGTYVFGTGTKVTVLGGSEGKSSGSGSESKSTGGSQVQLVESGGGVVQPGRSLRLSCAASGFTFSSYNMNWVRQAPGKGLEWVAIIYYDGSNKYYADSVKGRFTISRDISKNTLYLQMNSLRAEDTAVYYCARERGRDYYGMDVWGQGTTVTVSSEPKSSDKTHTCPPCPAPEAAGGPSVFLFPPKPKDTLMISRTPEVTCVVVSVSHEDPEVKFNWYVDGVEVHNAKTKPREEQYNSTYRVVSVLTVLHQDWLNGKEYKCKVSNKALPAPIEKTISKAKGQPREPQVYVLPPSREEMTKNQVSLLCLVKGFYPSDIAVEWESNGQPENNYLTWPPVLDSDGSFFLYSKLTVDKSRWQQGNVFSCSVMHEALHNHYTQKSLSLSPG
notes: as for B1
B4: PSMB1051 (bispecific antibody, human IgG1, kappa, L234A L235A)
heavy: not shown
light: not shown
chain: QSVLTQPPSASGTPGQGVTISCSGSSSNIGSNTVNWFQQLPGTAPKLLIYSDNQRPSGVPDRFSGSKSGTSASLAISGLQSEDEADYYCAAWDDSLNGYVFGTGTKVTVLGGSEGKSSGSGSESKSTGGSEVQLVESGGGVVQPGRSLRLSCAASGFTFITYGMHWVRQAPGKGLEWVAVVSFDESNKYYADSVKGRFTISRDNSKNTLYLQMNSLRAEDTAVYYCARALRDGNNWDYFNGMDVWGQGTTVTVSSEPKSSDKTHTCPPCPAPEAAGGPSVFLFPPKPKDTLMISRTPEVTCVVVSVSHEDPEVKFNWYVDGVEVHNAKTKPREEQYNSTYRVVSVLTVLHQDWLNGKEYKCKVSNKALPAPIEKTISKAKGQPREPQVYVLPPSREEMTKNQVSLLCLVKGFYPSDIAVEWESNGQPENNYLTWPPVLDSDGSFFLYSKLTVDKSRWQQGNVFSCSVMHEALHNHYTQKSLSLSPG
notes: as for B1
B5: BC3B102 (bispecific antibody, human IgG1, kappa, L234A L235A)
chain: QVQLVQSGAEVKKPGSSVKVSCKASGYTFTRSTMHWVKQAPGQGLEWIGYINPSSAYTNYNQKFQGRVTLTADKSTSTAYMELSSLRSEDTAVYYCASPQVHYDYNGFPYWGQGTLVTVSSGGSEGKSSGSGSESKSTGGSEIVLTQSPATLSASPGERVTLSCSASSSVSYMNWYQQKPGQAPRRWIYDSSKLASGVPARFSGSGSGRDYTLTISSLEPEDFAVYYCQQWSRNPPTFGGGTKVEIKEPKSSDKTHTCPPCPAPEAAGGPSVFLFPPKPKDTLMISRTPEVTCVVVSVSHEDPEVKFNWYVDGVEVHNAKTKPREEQYNSTYRVVSVLTVLHQDWLNGKEYKCKVSNKALPAPIEKTISKAKGQPREPQVYVYPPSREEMTKNQVSLTCLVKGFYPSDIAVEWESNGQPENNYKTTPPVLDSDGSFALVSKLTVDKSRWQQGNVFSCSVMHEALHNHYTQKSLSLSPG
heavy: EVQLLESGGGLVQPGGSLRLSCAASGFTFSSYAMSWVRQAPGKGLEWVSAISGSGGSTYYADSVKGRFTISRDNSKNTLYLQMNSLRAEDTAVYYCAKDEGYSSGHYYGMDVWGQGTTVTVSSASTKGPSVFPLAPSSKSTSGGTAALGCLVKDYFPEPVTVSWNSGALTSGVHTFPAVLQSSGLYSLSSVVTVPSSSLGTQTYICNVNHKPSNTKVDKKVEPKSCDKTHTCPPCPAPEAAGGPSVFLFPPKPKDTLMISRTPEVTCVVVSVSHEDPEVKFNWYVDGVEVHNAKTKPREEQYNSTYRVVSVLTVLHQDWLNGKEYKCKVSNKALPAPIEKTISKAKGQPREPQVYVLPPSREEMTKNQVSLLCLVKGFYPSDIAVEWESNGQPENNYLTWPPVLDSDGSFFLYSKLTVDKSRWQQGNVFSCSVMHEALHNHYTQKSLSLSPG
light: EIVLTQSPGTLSLSPGERATLSCRASQSISSSFLTWYQQKPGQAPRLLIYGASSRATGIPDRFSGGGSGTDFTLTISRLEPEDFAVYYCQHYGSSPMYTFGQGTKLEIKRTVAAPSVFIFPPSDEQLKSGTASVVCLLNNFYPREAKVQWKVDNALQSGNSQESVTEQDSKDSTYSLSSTLTLSKADYEKHKVYACEVTHQGLSSPVTKSFNRGEC
notes: IgG1 BCMAxCD3; HC1: CD3B2030 HL scFv-Fc; also called BC3B102.001; B2030 HL
B6: BC3B116 (bispecific antibody, human IgG1, kappa, L234A L235A)
chain: EIVLTQSPATLSASPGERVTLSCSASSSVSYMNWYQQKPGQAPRRWIYDSSKLASGVPARFSGSGSGRDYTLTISSLEPEDFAVYYCQQWSRNPPTFGGGTKVEIKGGSEGKSSGSGSESKSTGGSQVQLVQSGAEVKKPGSSVKVSCKASGYTFTRSTMHWVKQAPGQGLEWIGYINPSSAYTNYNQKFQGRVTLTADKSTSTAYMELSSLRSEDTAVYYCASPQVHYDYNGFPYWGQGTLVTVSSEPKSSDKTHTCPPCPAPEAAGGPSVFLFPPKPKDTLMISRTPEVTCVVVSVSHEDPEVKFNWYVDGVEVHNAKTKPREEQYNSTYRVVSVLTVLHQDWLNGKEYKCKVSNKALPAPIEKTISKAKGQPREPQVYVYPPSREEMTKNQVSLTCLVKGFYPSDIAVEWESNGQPENNYKTTPPVLDSDGSFALVSKLTVDKSRWQQGNVFSCSVMHEALHNHYTQKSLSLSPG
heavy: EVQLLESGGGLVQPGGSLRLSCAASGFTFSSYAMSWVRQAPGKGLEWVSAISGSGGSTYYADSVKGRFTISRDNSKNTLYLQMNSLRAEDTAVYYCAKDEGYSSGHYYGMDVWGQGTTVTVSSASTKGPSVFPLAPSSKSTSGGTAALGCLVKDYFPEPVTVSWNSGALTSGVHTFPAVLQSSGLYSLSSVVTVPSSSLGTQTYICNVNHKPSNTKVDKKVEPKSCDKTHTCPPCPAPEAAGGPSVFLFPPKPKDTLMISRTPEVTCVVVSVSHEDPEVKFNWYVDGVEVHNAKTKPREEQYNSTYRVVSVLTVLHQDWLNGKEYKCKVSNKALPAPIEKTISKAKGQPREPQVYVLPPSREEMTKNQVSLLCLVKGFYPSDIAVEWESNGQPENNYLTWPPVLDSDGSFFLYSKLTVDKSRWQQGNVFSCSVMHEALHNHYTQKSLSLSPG
light: B5 light
notes: IgG1 BCMAxCD3; HC1: CD3B2030 LH scFv-Fc; also called BC3B116.001; B2030 LH
B7: BC3B120 (bispecific antibody, human IgG1, kappa, L234A L235A)
chain: B6 chain with W46L, I174M
heavy: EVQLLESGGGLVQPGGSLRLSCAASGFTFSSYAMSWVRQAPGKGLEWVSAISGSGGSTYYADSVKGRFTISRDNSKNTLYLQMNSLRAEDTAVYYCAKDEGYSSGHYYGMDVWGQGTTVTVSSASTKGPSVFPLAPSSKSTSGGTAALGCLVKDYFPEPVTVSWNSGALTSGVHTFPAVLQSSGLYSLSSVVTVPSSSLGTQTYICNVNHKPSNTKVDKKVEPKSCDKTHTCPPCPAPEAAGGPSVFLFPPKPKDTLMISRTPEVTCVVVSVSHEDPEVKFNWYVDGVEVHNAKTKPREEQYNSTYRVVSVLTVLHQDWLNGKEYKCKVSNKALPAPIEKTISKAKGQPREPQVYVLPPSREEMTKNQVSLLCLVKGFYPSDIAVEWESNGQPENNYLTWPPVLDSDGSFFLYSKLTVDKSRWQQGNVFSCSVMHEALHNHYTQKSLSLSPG
light: B5 light
notes: IgG1 BCMAxCD3; HC1: CD3B2051 LH scFv-Fc; also called BC3B120.001; B2051 LH
B8: BC3B106 (bispecific antibody, human IgG1, kappa, L234A L235A)
chain: B5 chain with I48M, W187L
heavy: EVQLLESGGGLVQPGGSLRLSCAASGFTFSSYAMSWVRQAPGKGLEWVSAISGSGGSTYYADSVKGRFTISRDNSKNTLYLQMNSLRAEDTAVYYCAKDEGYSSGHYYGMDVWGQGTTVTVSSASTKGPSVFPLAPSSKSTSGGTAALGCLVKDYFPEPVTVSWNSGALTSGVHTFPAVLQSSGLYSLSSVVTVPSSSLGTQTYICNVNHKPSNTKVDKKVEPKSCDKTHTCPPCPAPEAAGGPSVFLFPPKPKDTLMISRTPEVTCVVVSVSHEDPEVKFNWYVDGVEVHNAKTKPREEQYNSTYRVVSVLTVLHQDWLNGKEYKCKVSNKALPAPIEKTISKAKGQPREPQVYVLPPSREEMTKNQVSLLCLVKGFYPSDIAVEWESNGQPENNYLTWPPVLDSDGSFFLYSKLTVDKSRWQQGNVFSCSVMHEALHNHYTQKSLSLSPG
light: B5 light
notes: IgG1 BCMAxCD3; HC1: CD3B2051 HL scFv-Fc; also called BC3B106.001; B2051 HL
B9: BC3B125 (bispecific antibody, human IgG1, kappa, L234A L235A)
chain: B6 chain with K164R, I174M, N187A
heavy: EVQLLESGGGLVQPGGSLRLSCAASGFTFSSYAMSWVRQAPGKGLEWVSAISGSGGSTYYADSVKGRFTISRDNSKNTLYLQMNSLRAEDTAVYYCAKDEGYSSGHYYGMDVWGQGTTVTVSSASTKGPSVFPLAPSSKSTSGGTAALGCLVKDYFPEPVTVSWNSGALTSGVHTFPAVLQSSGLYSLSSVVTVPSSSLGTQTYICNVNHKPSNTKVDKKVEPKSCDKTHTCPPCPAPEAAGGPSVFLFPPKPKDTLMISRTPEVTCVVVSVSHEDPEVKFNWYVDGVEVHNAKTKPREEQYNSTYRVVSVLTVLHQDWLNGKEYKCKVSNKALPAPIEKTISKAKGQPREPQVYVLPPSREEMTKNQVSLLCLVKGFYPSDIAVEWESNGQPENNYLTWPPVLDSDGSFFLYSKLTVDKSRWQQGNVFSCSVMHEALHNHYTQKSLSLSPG
light: B5 light
notes: IgG1 BCMAxCD3; HC1: CD3B2089 LH scFv-Fc; also called BC3B125.001; B2089 LH
B10: BC3B111 (bispecific antibody, human IgG1, kappa, L234A L235A)
chain: B5 chain with K38R, I48M, N61A
heavy: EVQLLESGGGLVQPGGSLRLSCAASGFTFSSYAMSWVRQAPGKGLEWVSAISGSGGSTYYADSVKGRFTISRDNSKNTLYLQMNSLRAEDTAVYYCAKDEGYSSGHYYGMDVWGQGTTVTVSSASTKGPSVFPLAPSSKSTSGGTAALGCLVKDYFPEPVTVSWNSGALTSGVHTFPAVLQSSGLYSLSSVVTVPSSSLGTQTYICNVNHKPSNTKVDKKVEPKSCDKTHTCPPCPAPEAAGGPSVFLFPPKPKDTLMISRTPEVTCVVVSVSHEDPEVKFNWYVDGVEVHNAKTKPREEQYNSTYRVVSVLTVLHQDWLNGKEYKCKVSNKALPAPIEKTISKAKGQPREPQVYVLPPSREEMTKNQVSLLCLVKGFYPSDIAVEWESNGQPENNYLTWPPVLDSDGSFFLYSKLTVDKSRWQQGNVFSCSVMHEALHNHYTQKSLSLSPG
light: B5 light
notes: IgG1 BCMAxCD3; HC1: CD3B2089 HL scFv-Fc; also called BC3B111.001; B2089 HL
B11: BC3B124 (bispecific antibody, human IgG1, kappa, L234A L235A)
chain: B6 chain with W46L, I174M, N232S
heavy: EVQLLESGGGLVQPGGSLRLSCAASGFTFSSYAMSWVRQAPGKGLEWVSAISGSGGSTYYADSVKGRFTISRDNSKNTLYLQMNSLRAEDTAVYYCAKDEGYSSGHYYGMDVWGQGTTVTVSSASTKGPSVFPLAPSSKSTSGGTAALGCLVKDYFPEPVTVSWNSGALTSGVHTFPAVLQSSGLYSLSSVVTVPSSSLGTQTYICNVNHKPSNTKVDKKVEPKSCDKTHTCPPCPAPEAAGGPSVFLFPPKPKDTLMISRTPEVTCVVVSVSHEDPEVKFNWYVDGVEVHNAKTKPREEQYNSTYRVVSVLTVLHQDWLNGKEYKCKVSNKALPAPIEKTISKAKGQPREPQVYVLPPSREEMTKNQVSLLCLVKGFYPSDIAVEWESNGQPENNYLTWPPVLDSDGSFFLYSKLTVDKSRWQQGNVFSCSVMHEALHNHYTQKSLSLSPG
light: B5 light
notes: IgG1 BCMAxCD3; HC1: CD3B2051-N106S LH scFv-Fc; also called BC3B124.001; B2051 LH NtoS
B12: BC3B112 (bispecific antibody, human IgG1, kappa, L234A L235A)
chain: B5 chain with K38R, I48M, N61A, N106A
heavy: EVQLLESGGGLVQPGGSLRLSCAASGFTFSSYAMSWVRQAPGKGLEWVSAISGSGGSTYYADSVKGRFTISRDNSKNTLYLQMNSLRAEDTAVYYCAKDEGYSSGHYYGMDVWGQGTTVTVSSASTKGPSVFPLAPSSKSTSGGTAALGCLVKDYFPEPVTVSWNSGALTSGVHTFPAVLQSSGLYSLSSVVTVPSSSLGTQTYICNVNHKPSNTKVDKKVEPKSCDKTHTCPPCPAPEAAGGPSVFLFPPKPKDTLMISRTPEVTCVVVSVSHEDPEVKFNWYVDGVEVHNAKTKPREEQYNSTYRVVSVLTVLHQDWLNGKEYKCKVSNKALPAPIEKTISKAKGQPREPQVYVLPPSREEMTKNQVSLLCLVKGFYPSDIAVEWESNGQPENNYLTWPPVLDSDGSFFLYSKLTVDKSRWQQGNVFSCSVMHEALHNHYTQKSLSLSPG
light: B5 light
notes: IgG1 BCMAxCD3; HC1: CD3B2089-N106A HL scFv-Fc; also called BC3B112.001; B2089 HL NtoA

target: T1, human PSMA on prostate cancer cell lines (22RV1, C4-2B) (human, UniProt Q04609 1-750); assay: flow cytometry on C4-2B cells, four-parameter fit
T1 construct: also called PSMA-expressing cell lines
T1 sequence (Q04609 whole entry): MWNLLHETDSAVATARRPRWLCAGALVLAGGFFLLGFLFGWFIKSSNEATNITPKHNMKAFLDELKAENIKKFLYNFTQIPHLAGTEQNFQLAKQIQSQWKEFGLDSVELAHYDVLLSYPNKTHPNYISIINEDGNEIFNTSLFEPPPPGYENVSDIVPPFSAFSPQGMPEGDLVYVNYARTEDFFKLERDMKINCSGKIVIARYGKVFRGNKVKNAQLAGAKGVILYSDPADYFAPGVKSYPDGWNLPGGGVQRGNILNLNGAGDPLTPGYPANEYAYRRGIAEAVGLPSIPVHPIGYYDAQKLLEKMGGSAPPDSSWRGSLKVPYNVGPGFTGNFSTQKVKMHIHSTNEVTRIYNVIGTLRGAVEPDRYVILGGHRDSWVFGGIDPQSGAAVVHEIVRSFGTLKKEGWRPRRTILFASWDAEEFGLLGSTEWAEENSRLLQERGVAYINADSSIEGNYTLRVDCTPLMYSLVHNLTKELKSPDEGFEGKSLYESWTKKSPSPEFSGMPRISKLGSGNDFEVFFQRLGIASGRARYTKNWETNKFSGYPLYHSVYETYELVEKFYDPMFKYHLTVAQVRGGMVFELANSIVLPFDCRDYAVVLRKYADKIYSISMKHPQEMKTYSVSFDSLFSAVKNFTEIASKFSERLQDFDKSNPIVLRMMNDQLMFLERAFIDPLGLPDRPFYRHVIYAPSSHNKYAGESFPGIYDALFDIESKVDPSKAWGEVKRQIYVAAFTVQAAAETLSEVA
Description: Molecule concentrations ranged from 500-0 nM over 12-points at 3-fold dilution. […] Values reported in the Table 69 were generated by fitting the data to a four-parameter function for ligand binding generating values for y-min, y-max, EC50, and Hill. EC90 were calculated using the equation EC90=[…]\hat{ }(1/Hill)*EC50.

Binder | EC50 [nM] | EC90 [nM] | Y-max | Y-min
B1 | 8 | 247 | 1.9e+06 | 48000
B2 | 5 | 40 | 1.5e+06 | 84000
B3 | 7 | 248 | 1.8e+06 | 53000
B4 | 10 | 76 | 1.5e+06 | 67000

target: T2, recombinant human PSMA (human, UniProt Q04609 44-750); assay: SPR (Biacore 8K), antibody captured on anti-Fc, PSMA in solution
T2 construct: also called hu PSMA; prostate-specific membrane antigen
T2 sequence (Q04609 44-750 limits assumed): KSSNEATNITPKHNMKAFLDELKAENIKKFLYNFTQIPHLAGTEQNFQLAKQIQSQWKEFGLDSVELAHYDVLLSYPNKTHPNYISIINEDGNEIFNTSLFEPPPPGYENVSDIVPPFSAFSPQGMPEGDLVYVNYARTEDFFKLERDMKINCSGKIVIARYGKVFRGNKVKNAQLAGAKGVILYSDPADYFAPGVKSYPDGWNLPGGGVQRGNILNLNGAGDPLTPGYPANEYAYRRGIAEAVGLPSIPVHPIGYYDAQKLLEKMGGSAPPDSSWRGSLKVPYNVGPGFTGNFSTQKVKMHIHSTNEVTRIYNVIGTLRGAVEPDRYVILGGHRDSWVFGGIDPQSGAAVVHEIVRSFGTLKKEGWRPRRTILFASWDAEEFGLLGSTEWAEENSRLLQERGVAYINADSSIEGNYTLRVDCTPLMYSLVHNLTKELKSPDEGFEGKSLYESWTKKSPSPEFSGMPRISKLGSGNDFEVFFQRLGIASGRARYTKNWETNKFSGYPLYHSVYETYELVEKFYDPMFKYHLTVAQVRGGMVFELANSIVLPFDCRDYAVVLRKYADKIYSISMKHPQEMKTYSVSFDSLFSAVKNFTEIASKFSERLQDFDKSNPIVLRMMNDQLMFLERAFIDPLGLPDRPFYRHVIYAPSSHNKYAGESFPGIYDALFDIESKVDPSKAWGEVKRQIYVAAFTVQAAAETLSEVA
Description: The antibodies were captured on a goat anti-Fc antibody-modified C1 chip and titrated with 3-fold serial dilutions of PSMA antigen spanning concentrations of 1 nM to 100 nM human PSMA. The association and dissociation were monitored for 3 and 30 minutes, respectively, using a flow rate of 50 μL/min. Raw binding data was referenced by subtracting the analyte binding signals from blanks and analyzed using a 1:1 Langmuir binding model by the Biacore Insight evaluation software to obtain the kinetics which were used to calculate the binding affinity. The anti-PSMA were captured using an anti-human Fc antibody and the antigens were injected in solution.

Binder | Kd [nM] | koff [s⁻¹] | kon [M⁻¹ s⁻¹]
B1 | 1.11 | 0.000168 | 151000
B2 | 0.657 | 7.02e-05 | 107000
B3 | 0.333 | 6.98e-05 | 209000
B4 | 1.01 | 7.75e-05 | 77100

target: T3, Human CD3 epsilon (CD3ε), on primary human pan T cells (human, UniProt P07766 23-207); assay: flow cytometry on human T cells, anti-human IgG Fc A647 detection
T3 construct: Endogenous CD3 in the TCR complex on T cells; also called T-cell surface glycoprotein CD3 epsilon chain; T3E
T3 sequence (P07766 23-207 limits assumed): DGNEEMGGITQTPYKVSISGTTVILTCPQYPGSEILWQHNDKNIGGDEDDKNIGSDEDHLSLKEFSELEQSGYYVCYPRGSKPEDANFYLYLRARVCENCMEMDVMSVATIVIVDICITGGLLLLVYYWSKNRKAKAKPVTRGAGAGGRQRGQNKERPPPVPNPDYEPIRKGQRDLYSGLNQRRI
Description: The bsAbs were assayed for their abilities bind T cells and to induce T-cell mediated cytotoxicity against H929 cells (ATCC@CRL-9068™). […] Stain buffer with no antibody was added to bottom 4 wells and assign as background control (secondary antibody alone). Parental Cris7b, CD3B695 (bivalent mAb controls) and CD3B375 (bsAb which was monovalent for Cris-7b) were added also with full dose-response curves.
Frozen T-cells were thawed in a 37° C. water bath and transferred gently into conical tube containing warm 5 mL media (RPMI+10% FBS)/1 vial of 1×10⁶ cells. Cells were mixed and centrifuged for 5 minutes at 400×g followed by resuspension in flow staining buffer, and counted and viability checked. Cells were then plated in 50 uL/50,000 cells/well into assay plates. Assay positive control mAb was added in the first column in quadruplicates at 2× at 20 nM in the bottom 4 wells. Stain buffer with no mAb was added to the top 4 wells and assigned as background controls (secondary antibody alone). Serially diluted antibody samples were added at 50 uL/well using Intergra Viaflo according to the attached plate maps and incubated for 1 hr at 37° C. After one hour incubation, 150 uL staining buffer were added to all wells, and cells were spun at 500×g for 5 minutes to pellet cells. Cells were then washed prior to addition of Alexa Fluor 647 (A647) conjugated anti human IgG Fc specific secondary detection antibody at 2 ug/mL in staining buffer. Secondary detection antibody was added at 50 uL/well to the washed cells. Plates were covered with foil and incubated for 30 minutes on ice or in the fridge. 150 uL staining buffer were added to all wells, and cells were spun at 500×g for 5 min to pellet cells. Cells were resuspended in 20 uL running buffer containing 1:1000 dilution of SYTOX™ green dead cell stain and run plates on iQue® Screener flow cytometer (Essen BioScience, Inc.). Briefly, cells were gated on FCS vs. SCS dot plot to eliminate debris. Singlets were gated on SCS-A vs SCS-H dot plot and from singlet population, live cells gated choosing BL1 channel for low/negative with SYTOX™ green viability stain (Thermo Fisher).

Binder | EC50 [nM]
B5 | 3
B6 | 21.8
B7 | 100
B8 | 6.8
B9 | 36.9
B10 | 6.4
B11 | 300
B12 | ≥ 300

Source: patent US20250145711A1 (Janssen / Centocor, published 2025)
